According to patent US20250066503A1, “CELL INJURY INDUCING THERAPEUTIC DRUG FOR USE IN CANCER THERAPY” (CHUGAI SEIYAKU KABUSHIKI KAISHA, priority 2016, published 2025):
Each block holds one binder with its values, some of them ahead of it.

Molecular target: T1, soluble human CD3 epsilon chain (human, UniProt P07766 23-126)
T1 construct: also called CD3ε
Test: SPR

T1 sequence (P07766 23-126 limits assumed): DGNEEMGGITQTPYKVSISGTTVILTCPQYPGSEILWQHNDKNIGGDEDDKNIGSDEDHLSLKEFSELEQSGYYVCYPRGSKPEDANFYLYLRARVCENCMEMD

B2: TR01H015-E22Hh/none-Hi-Kn010G3/TR01L004-k0 (antibody, human IgG1, L234A L235A, N297A)
heavy: QVQLVESGGGLVQPGRSLRLSCAASGFTFSNAWMHWVRQAPGKGLEWVAQIKGKSNNYATYYAESVKGRFTISRADSKNSIYLQMNSLKTEDTAVYYCRYVHYSASYGVDIWGQGTTVTVSSASTKGPSVFPLAPSSKSTSGGTAALGCLVKDYFPEPVTVSWNSGALTSGVHTFPAVLQSSGLYSLSSVVTVPSSSLGTQTYICNVNHKPSNTKVDKKVEPKSCDKTHTCPPCPAPEAAGGPSVFLFPPKPKDTLMISRTPEVTCVVVDVSHEDPEVKFNWYVDGVEVHNAKTKPREEQYASTYRVVSVLTVLHQDWLNGKEYKCKVSNKALPAPIEKTISKAKGQPREPQVYTLPPSRCELTKNQVSLSCAVKGFYPSDIAVEWESNGQPENNYKTTPPVLDSDGSFFLVSKLTVDKSRWQQGNVFSCSVMHEALHNHYTQKSLSLSPDYKDDDDK
VL: DIVMTQSPLSLPVTPGEPASISCQASESLVHSNRNTYLHWYQQKPGQAPRLLIYKVSNRFSGVPDRFSGSGSGTDFTLKISRVEAEDVGVYYCGQGTQVPYTFGQGTKVEIE
notes: one-arm
Kd: 73.4 nM

B4: TR01H015-E22Hh/none-Hi-Kn010G3/TR01L006-k0 (antibody, human IgG1, L234A L235A, N297A, V domains shown)
VH: QVQLVESGGGLVQPGRSLRLSCAASGFTFSNAWMHWVRQAPGKGLEWVAQIKGKSNNYATYYAESVKGRFTISRADSKNSIYLQMNSLKTEDTAVYYCRYVHYSASYGVDIWGQGTTVTVSS
VL: DIVMTQSPLSLPVTPGEPASISCQASESLVHSNRNTYLHWYLQKPGQSPQLLIYKVSNRFSGVPDRFSGSGSGTDFTLKISRVEAEDVGVYYCGQGTQVPYTFGQGTKVEIE
notes: one-arm
Kd: 93 nM

B5: rCE115H-E22Hh/none-Hi-Kn010G3/L0000-k0 (antibody, human IgG1, kappa, L234A L235A, N297A, V domains shown)
VH: EVQLVETGGSLVQPGKSLKLTCATSGFTFSNAWMHWVRQSPEKQLEWVAQIKAKSNNYATYYAESVKGRFTISRDDSKSNIYLQMNSLKEEDTAVYYCRYVHYGAYYGVDAWGQGTSVTVSS
VL: DIVMTQSPLSLPVTPGEPASISCRSSQSLVHSNRNTYLHWYQQKPGQAPRLLIYKVSNRFSGVPDRFSGSGSGTDFTLKISRVEAEDVGVYYCGQGTQVPYTFGQGTKLEIKR
notes: one-arm
Kd: 80 nM

More lines, in order of falling Kd, values ahead:

Kd: 71.4 nM
B1: TR01H015-E22Hh/none-Hi-Kn010G3/TR01L002-k0 (antibody, human IgG1, L234A L235A, N297A)
heavy: QVQLVESGGGLVQPGRSLRLSCAASGFTFSNAWMHWVRQAPGKGLEWVAQIKGKSNNYATYYAESVKGRFTISRADSKNSIYLQMNSLKTEDTAVYYCRYVHYSASYGVDIWGQGTTVTVSSASTKGPSVFPLAPSSKSTSGGTAALGCLVKDYFPEPVTVSWNSGALTSGVHTFPAVLQSSGLYSLSSVVTVPSSSLGTQTYICNVNHKPSNTKVDKKVEPKSCDKTHTCPPCPAPEAAGGPSVFLFPPKPKDTLMISRTPEVTCVVVDVSHEDPEVKFNWYVDGVEVHNAKTKPREEQYASTYRVVSVLTVLHQDWLNGKEYKCKVSNKALPAPIEKTISKAKGQPREPQVYTLPPSRCELTKNQVSLSCAVKGFYPSDIAVEWESNGQPENNYKTTPPVLDSDGSFFLVSKLTVDKSRWQQGNVFSCSVMHEALHNHYTQKSLSLSPDYKDDDDK
VL: DIVMTQSPLSLPVTPGEPASISCRSSQSLVHSNRNTYLHWYLQKPGQSPQLLIYKVSNRFSGVPDRFSGSGSGTDFTLKISRVEAEDVGVYYCGQGTQVPYTFGQGTKLEIK
notes: one-arm

Kd: 65.3 nM
B3: TR01H015-E22Hh/none-Hi-Kn010G3/TR01L005-k0 (antibody, human IgG1, L234A L235A, N297A)
heavy: QVQLVESGGGLVQPGRSLRLSCAASGFTFSNAWMHWVRQAPGKGLEWVAQIKGKSNNYATYYAESVKGRFTISRADSKNSIYLQMNSLKTEDTAVYYCRYVHYSASYGVDIWGQGTTVTVSSASTKGPSVFPLAPSSKSTSGGTAALGCLVKDYFPEPVTVSWNSGALTSGVHTFPAVLQSSGLYSLSSVVTVPSSSLGTQTYICNVNHKPSNTKVDKKVEPKSCDKTHTCPPCPAPEAAGGPSVFLFPPKPKDTLMISRTPEVTCVVVDVSHEDPEVKFNWYVDGVEVHNAKTKPREEQYASTYRVVSVLTVLHQDWLNGKEYKCKVSNKALPAPIEKTISKAKGQPREPQVYTLPPSRCELTKNQVSLSCAVKGFYPSDIAVEWESNGQPENNYKTTPPVLDSDGSFFLVSKLTVDKSRWQQGNVFSCSVMHEALHNHYTQKSLSLSPDYKDDDDK
VL: DIVMTQSPLSLPVTPGEPASISCRSSQSLVHSNRNTYLHWYLQKPGQSPQLLIYKVSNRFSGVPDRFSGSGSGTDFTLKISRVEAEDVGVYYCGQGTQVPYTFGQGTKVEIE
notes: one-arm
